The target in assay [1] is mouse α-synuclein pre-formed fibrils (mouse) (UniProt O55042). As to the kind of experiment: other fluorescence titration.
Assay [2] addresses mouse α-synuclein type B* oligomers (mouse) (UniProt O55042). As to the kind of experiment: other fluorescence titration.

As usually defined, the Kd is the free concentration of one partner at which half of the binding sites on the other are occupied at equilibrium, for simple one-to-one binding. A higher Kd goes with a looser complex.

In assay [1], “BODIPY630/650-labelled PSMα3 peptide probe P1” gave a Kd of 1.4 µM, a fold increase of the emission peak intensity of 16 fold and a fold increase of the excitation peak intensity of 7.6 fold. For the same substance, in assay [2], the fold increase of the emission peak intensity worked out at 3 fold and the fold increase of the excitation peak intensity was 1.8 fold.
